The values that follow come from patent US20240398942A1, “USE OF ANTI-CD40 ANTIBODY” (CHIA TAI TIANQING PHARMACEUTICAL GROUP CO., LTD., priority 2021, published 2024).

Assay [1] has as its target Cynomolgus monkey CD40-his. The assay can be described thus: Biacore surface plasmon resonance affinity and binding kinetics. To be noted: Table 5, Biacore; for Ka: purified antibodies. The source says:
(§1) The affinity and binding kinetics of the anti-CD40 antibody in the present application were characterized by a Biacore T200 system (GE Healthcare, Pittsburgh, PA, USA).
(§2) Briefly, a goat anti-human IgG (GE Healthcare, Cat. No. BR100839, human antibody capture kit) was covalently linked to a CM5 chip (GE Healthcare, Cat. No. BR100530, carboxymethylated dextran-coated chip) via the primary amine group using a standard amine coupling kit supplied by Biacore (GE Healthcare, Pittsburgh, PA, USA). Unreacted portions on the biosensor surface were blocked with ethanolamine. Then, the anti-CD40 antibody of the present application and two benchmark antibodies (BM1 (dacetuzumab, Genentech Inc., also referred to CD40-BM1, prepared in-house; the heavy and light chain amino acid sequences are set forth in SEQ ID NOs: 40 and 41, respectively) and BM2 (selicrelumab, Abgenix Inc., also referred to CD40-BM2, prepared in-house; the heavy and light chain amino acid sequences are set forth in SEQ ID NOS: 42 and 43, respectively)) at a concentration of 66.67 nM were directed through the chip at a flow rate of 10 μL/min. Then, serially diluted recombinant human CD40-his (Acro biosystems, Cat. No. CD0-H5228, serially 2-fold diluted from 80 nM in HBS-EP^+ buffer (supplied by Biacore)) or cynomolgus monkey CD40-his protein (Acro biosystems, Cat. No. CD0-C52H6, serially 2-fold diluted from 80 nM in HBS-EP^+ buffer (supplied by Biacore)) was directed through the chip at a flow rate of 30 μL/min. The antigen-antibody binding kinetics was tracked for 2 min and the dissociation kinetics was tracked for 10 min. The association and dissociation curves were fitted to a 1:1 Langmuir binding model using BIAcore evaluation software. KD, Ka, and Kd values were determined.

Assay [2] addresses T1, Human CD40-his (Homo sapiens, UniProt P25942).
T1 construct: His; purchased Acro biosystems CD0-H5228
Described as above. To be noted: Table 5, Biacore; for Ka: purified antibodies.
Text: as §1, §2

The target in assay [3] is T1, Human CD40-his. The assay can be described thus: Octet kinetics of humanized C1H1 antibodies. The assay is classed as binding. To be noted: Table 3, Octet; for Ka: humanized antibodies in cell supernatant, chimeric and benchmark 5 μg/mL. How it is done:
After six days of culture in a shake flask, the cell supernatant containing the humanized antibodies huC1H1-V1 to huC1H1-V4 was harvested and the binding affinity of the antibodies to human CD40 was determined on an Octet system (Fortebio, Octet RED 96) according to the following procedures. Briefly, an anti-human IgG Fc capture (AHC) biosensor (from ForteBio) was pre-soaked in a 10 mM glycine solution (pH 1.5) for 3 s, and then soaked in a running buffer (PBST containing 0.5% w/v of BSA) for 3 s. The pre-soaking and soaking procedures were repeated 3 times. Then, the sensor was soaked in the cell supernatant containing the humanized anti-CD40 antibody, chimeric antibody C1H1 dissolved in HBS-EP^+ buffer at a concentration of 5 μg/mL, or the benchmark dissolved in HBS-EP^+ buffer at a concentration of 5 μg/mL for 120 s, and then soaked in the running buffer for 5 min. The new baseline was run in the running buffer for 180 s. The sensor was then soaked for 120 s in human CD40-his protein (Acro biosystems, Cat. No. CD0-H5228) 2-fold serially diluted from 40 nM in the running buffer and for 10 min in the running buffer […]. Finally, the sensor was pre-soaked in a 10 mM glycine solution (pH 1.5) for 3 s, and then soaked in the running buffer for 3 s. The pre-soaking and soaking procedures were repeated 3 times. The association and dissociation curves were fitted to a 1:1 Langmuir binding model using ForteBio Data Analysis 8.1.

In assay [4] the target is binding of the benchmark (BM2) to human CD40 (Homo sapiens, UniProt P25942). The assay can be described thus: Benchmark blocking competitive ELISA. To be noted: in words, FIG. 6. The protocol: The ability of the anti-CD40 antibody of the present application to block the binding of the benchmark to human CD40 was determined by competitive ELISA. Briefly, BM2 antibody was immobilized on a 96-well micro plates at 1 μg/mL in PBS, 100 µL/well, and incubated overnight at 4° C. The next day, the plate was washed once with a washing buffer before a blocking buffer (PBST containing 5% w/v of skim milk) was added. The plate was then incubated at 37° C. for 2 h for blocking. During the blocking of the 96-well plate, the anti-CD40 antibody of the present application or the benchmark was serially 5-fold diluted from 66.7 nM with a biotinylated human CD40-Fc protein (amino acid residues 21-193 of SEQ ID NO: 30 linked to the N terminus of amino acid residues 99-330 of SEQ ID NO: 28, dissolved in PBST containing 2.5% w/v of skim milk at a concentration of 0.23 nM) and then incubated at room temperature for 40 min. After the plate was washed 4 times, the antibody/biotinylated human CD40-Fc mixture was added at 100 μL/well to the plate coated with BM2. The plate was incubated at 37° C. for 40 min and again washed 4 times with the washing buffer. […] The absorbance was read on a microplate reader using the dual wavelength mode (TMB detection wavelength: 450 nm, reference wavelength: 630 nm). […] Data were analyzed using Graphpad Prism software, and IC50 values were obtained.

Read-outs that look alike come from different tables or passages of the source.

T1 sequence (P25942 21-277): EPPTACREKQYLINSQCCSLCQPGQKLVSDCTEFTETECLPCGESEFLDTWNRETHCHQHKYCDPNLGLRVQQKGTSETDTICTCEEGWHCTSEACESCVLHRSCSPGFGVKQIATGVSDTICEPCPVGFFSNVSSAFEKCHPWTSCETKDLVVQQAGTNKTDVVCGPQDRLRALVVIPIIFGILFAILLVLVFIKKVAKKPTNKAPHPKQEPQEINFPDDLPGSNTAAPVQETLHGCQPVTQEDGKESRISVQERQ
Chain of binding of the benchmark (BM2) to human CD40 (P25942 21-193): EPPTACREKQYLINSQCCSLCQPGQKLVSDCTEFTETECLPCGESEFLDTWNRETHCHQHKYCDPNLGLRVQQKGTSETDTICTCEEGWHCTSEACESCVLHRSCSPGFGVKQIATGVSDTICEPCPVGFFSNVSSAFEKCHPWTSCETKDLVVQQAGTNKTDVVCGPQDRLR

B1: huC1H1-V1: humanized C1H1 anti-CD40 antibody, VH SEQ ID NO: 20 X1=A, VL SEQ ID NO: 24 X1=K X2=F, human IgG2/κ (antibody, V domains shown)
VH: EVQLVESGGGLVKPGGSLRLSCAASGFTFSNYGISWVRQAPGKGLEWVXSISSGGDNTYYPDNVKGRFTISRDNAKNSLYLQMNSLRAEDTAVYYCARAGEKAMDYWGQGTLVTVSS
VL: EIVLTQSPATLSLSPGERATLSCRASQTINNNLHWYQQKPGQAPRLLIXYASQSISGIPARFSGSGSGTDFTLTISSLEPEDFAVYXCQQFSSWPLTFGGGTKVEIK
modifications: not fully specified; human IgG2/kappa constant regions; VH of huC1H1-V1 to huC1H1-V4; VARIANT 49 X can be A or S; VL of huC1H1-V1 to huC1H1-V4; VARIANT 49 X can be K or Y; VARIANT 87 X can be F or Y
As for B1, the Kd amounted to 0.002371 s⁻¹ in assay [1] (dissociation rate); 1.11 nM in assay [1] (read-out: KD); 0.00248 s⁻¹ with Human CD40-his [2] (dissociation rate); 1.1 nM in the assay with Human CD40-his [2] (read-out: KD); 0.00128 s⁻¹ with Human CD40-his [3] (dissociation rate); 0.904 nM with Human CD40-his [3] (read-out: KD). The Ka worked out at 2.14e+06 M⁻¹ s⁻¹ in assay [1], 2.25e+06 M⁻¹ s⁻¹ in the assay with Human CD40-his [2] and 1.41e+06 M⁻¹ s⁻¹ with Human CD40-his [3]. For the same molecule, the “Blocking of the binding of human CD40 to BM2” value in assay [4] is reported as “able to block the binding of human CD40 to BM2”.

B2: huC1H1-V2: humanized C1H1 anti-CD40 antibody, VH SEQ ID NO: 20 X1=S, VL SEQ ID NO: 24 X1=K X2=F, human IgG2/κ (antibody, V domains shown)
VH: EVQLVESGGGLVKPGGSLRLSCAASGFTFSNYGISWVRQAPGKGLEWVXSISSGGDNTYYPDNVKGRFTISRDNAKNSLYLQMNSLRAEDTAVYYCARAGEKAMDYWGQGTLVTVSS
VL: EIVLTQSPATLSLSPGERATLSCRASQTINNNLHWYQQKPGQAPRLLIXYASQSISGIPARFSGSGSGTDFTLTISSLEPEDFAVYXCQQFSSWPLTFGGGTKVEIK
modifications: not fully specified; variable positions X1=S; VL X1=K X2=F; IgG2/kappa constant; VH of huC1H1-V1 to huC1H1-V4; VARIANT 49 X can be A or S; VL of huC1H1-V1 to huC1H1-V4; VARIANT 49 X can be K or Y; VARIANT 87 X can be F or Y
As to B2, the Kd stood at 0.002735 s⁻¹ in assay [1] (dissociation rate); 1.07 nM in assay [1] (read-out: KD); 0.002704 s⁻¹ with Human CD40-his [2] (dissociation rate); 1.17 nM in the assay with Human CD40-his [2] (read-out: KD); 0.000981 s⁻¹ with Human CD40-his [3] (dissociation rate); 0.596 nM in the assay with Human CD40-his [3] (read-out: KD). In addition, the Ka in assay [1] worked out at 2.56e+06 M⁻¹ s⁻¹; with Human CD40-his [2], 2.31e+06 M⁻¹ s⁻¹; in the assay with Human CD40-his [3], 1.65e+06 M⁻¹ s⁻¹. Moreover, the “Blocking of the binding of human CD40 to BM2” value in assay [4] is recorded as “able to block the binding of human CD40 to BM2”.
